From patent US20220363769A1 (SORRISO PHARMACEUTICALS, published 2022)

T1: recombinant human IL-7Rα-His6-Fc (human, UniProt P16871 21-239)
T1 construct: also called hIL-7R; not shown: His6 tag; Fc (captured by anti-human IgG Fc)
T1 chain: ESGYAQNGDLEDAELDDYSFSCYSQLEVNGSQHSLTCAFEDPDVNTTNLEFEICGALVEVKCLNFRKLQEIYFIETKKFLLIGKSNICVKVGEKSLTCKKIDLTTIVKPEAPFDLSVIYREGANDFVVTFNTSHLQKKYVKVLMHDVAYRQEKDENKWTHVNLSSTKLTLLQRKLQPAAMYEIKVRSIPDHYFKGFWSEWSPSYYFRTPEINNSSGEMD


Target: T1, recombinant human IL-7Rα-His6-Fc
Assay: IL-7/IL-7Rα-His6-Fc ELISA; inhibition of IL-7 binding to IL-7R

EC50 [nM] | Binder
0.46 | ID-A28U (VHH, V7R-2E9 with E44G, R45L, F47W, Q65K, S88A) VHH: EVQLVESGGGLVQAGGSLRLSCESSISTFSSDAMGWFRQAPGKGLEWLAAIGWSGAVTHYSDSVKGRFTISRDNAKNTVYLQMNSLKAEDTGRYYCAEDYDTDVWQYWGQGTQVTVSS
0.849 | ID-A35U (VHH, V7R-2E9 with Q65K, S88A) VHH: EVQLVESGGGLVQAGGSLRLSCESSISTFSSDAMGWFRQAPGKEREFLAAIGWSGAVTHYSDSVKGRFTISRDNAKNTVYLQMNSLKAEDTGRYYCAEDYDTDVWQYWGQGTQVTVSS
0.854 | ID-A23U (VHH, V7R-2E9 with E44G, R45L, F47W, Q65K, K87R, S88A) VHH: EVQLVESGGGLVQAGGSLRLSCESSISTFSSDAMGWFRQAPGKGLEWLAAIGWSGAVTHYSDSVKGRFTISRDNAKNTVYLQMNSLRAEDTGRYYCAEDYDTDVWQYWGQGTQVTVSS
0.395 | ID-A27U (VHH, V7R-2E9 with E44G, R45L, F47W, K87R, S88A) VHH: EVQLVESGGGLVQAGGSLRLSCESSISTFSSDAMGWFRQAPGKGLEWLAAIGWSGAVTHYSDSVQGRFTISRDNAKNTVYLQMNSLRAEDTGRYYCAEDYDTDVWQYWGQGTQVTVSS
0.336 | ID-A31U (VHH, V7R-2E9 with E44G, Q65K) VHH: EVQLVESGGGLVQAGGSLRLSCESSISTFSSDAMGWFRQAPGKGREFLAAIGWSGAVTHYSDSVKGRFTISRDNAKNTVYLQMNSLKSEDTGRYYCAEDYDTDVWQYWGQGTQVTVSS
0.367 | ID-A32U (VHH, V7R-2E9 with E44G, K87R) VHH: EVQLVESGGGLVQAGGSLRLSCESSISTFSSDAMGWFRQAPGKGREFLAAIGWSGAVTHYSDSVQGRFTISRDNAKNTVYLQMNSLRSEDTGRYYCAEDYDTDVWQYWGQGTQVTVSS
0.476 | ID-A29U (VHH, V7R-2E9 with E44G, R45L, F47W, Q65K, K87R) VHH: EVQLVESGGGLVQAGGSLRLSCESSISTFSSDAMGWFRQAPGKGLEWLAAIGWSGAVTHYSDSVKGRFTISRDNAKNTVYLQMNSLRSEDTGRYYCAEDYDTDVWQYWGQGTQVTVSS
0.376 | ID-A34U (VHH, V7R-2E9 with Q65K, K87R) VHH: EVQLVESGGGLVQAGGSLRLSCESSISTFSSDAMGWFRQAPGKEREFLAAIGWSGAVTHYSDSVKGRFTISRDNAKNTVYLQMNSLRSEDTGRYYCAEDYDTDVWQYWGQGTQVTVSS
0.835 | ID-A25U (VHH, V7R-2E9 with E44G, F47W, Q65K, K87R, S88A) VHH: EVQLVESGGGLVQAGGSLRLSCESSISTFSSDAMGWFRQAPGKGREWLAAIGWSGAVTHYSDSVKGRFTISRDNAKNTVYLQMNSLRAEDTGRYYCAEDYDTDVWQYWGQGTQVTVSS
0.819 | ID-A24U (VHH, V7R-2E9 with R45L, F47W, Q65K, K87R, S88A) VHH: EVQLVESGGGLVQAGGSLRLSCESSISTFSSDAMGWFRQAPGKELEWLAAIGWSGAVTHYSDSVKGRFTISRDNAKNTVYLQMNSLRAEDTGRYYCAEDYDTDVWQYWGQGTQVTVSS
0.362 | ID-A30U (VHH, V7R-2E9 with E44G, Q65K, K87R, S88A) VHH: EVQLVESGGGLVQAGGSLRLSCESSISTFSSDAMGWFRQAPGKGREFLAAIGWSGAVTHYSDSVKGRFTISRDNAKNTVYLQMNSLRAEDTGRYYCAEDYDTDVWQYWGQGTQVTVSS
0.841 | ID-A26U (VHH, V7R-2E9 with E44G, R45L, Q65K, K87R, S88A) VHH: EVQLVESGGGLVQAGGSLRLSCESSISTFSSDAMGWFRQAPGKGLEFLAAIGWSGAVTHYSDSVKGRFTISRDNAKNTVYLQMNSLRAEDTGRYYCAEDYDTDVWQYWGQGTQVTVSS
0.429 | ID-A33U (VHH, V7R-2E9 with E44G, S88A) VHH: EVQLVESGGGLVQAGGSLRLSCESSISTFSSDAMGWFRQAPGKGREFLAAIGWSGAVTHYSDSVQGRFTISRDNAKNTVYLQMNSLKAEDTGRYYCAEDYDTDVWQYWGQGTQVTVSS

Target: T1, recombinant human IL-7Rα-His6-Fc
Assay: IL-7/IL-7R neutralisation ELISA; inhibition of IL-7 binding to IL-7R
Description: A 7-point dilution series of the clones was prepared in 1% BSA (at 2× the assay concentration) starting at 300 nM and using a 3.2 dilution factor. […] Block buffer alone was also added to each plate as blank. […] TMB reaction was stopped after 30 minutes. […]

EC50 [nM] | Binder
0.475 | ID-A2U (VHH, V7R-2E9 with E23A; produced from E. coli) VHH: EVQLVESGGGLVQAGGSLRLSCASSISTFSSDAMGWFRQAPGKEREFLAAIGWSGAVTHYSDSVQGRFTISRDNAKNTVYLQMNSLKSEDTGRYYCAEDYDTDVWQYWGQGTQVTVSS
0.513 | ID-A7U (VHH, V7R-2E9 with 44 to 49 EREFLA to GLEWS (so in the source); produced from E. coli) VHH: EVQLVESGGGLVQAGGSLRLSCESSISTFSSDAMGWFRQAPGKGLEWVSAIGWSGAVTHYSDSVQGRFTISRDNAKNTVYLQMNSLKSEDTGRYYCAEDYDTDVWQYWGQGTQVTVSS
0.146 | ID-A15U (VHH, V7R-2E9 with V79L; produced from E. coli) VHH: EVQLVESGGGLVQAGGSLRLSCESSISTFSSDAMGWFRQAPGKEREFLAAIGWSGAVTHYSDSVQGRFTISRDNAKNTLYLQMNSLKSEDTGRYYCAEDYDTDVWQYWGQGTQVTVSS
0.493 | ID-A17U (VHH, V7R-2E9 with S88A; produced from E. coli) VHH: EVQLVESGGGLVQAGGSLRLSCESSISTFSSDAMGWFRQAPGKEREFLAAIGWSGAVTHYSDSVQGRFTISRDNAKNTVYLQMNSLKAEDTGRYYCAEDYDTDVWQYWGQGTQVTVSS
0.214 | ID-A18U (VHH, V7R-2E9 with S88T; produced from E. coli) VHH: EVQLVESGGGLVQAGGSLRLSCESSISTFSSDAMGWFRQAPGKEREFLAAIGWSGAVTHYSDSVQGRFTISRDNAKNTVYLQMNSLKTEDTGRYYCAEDYDTDVWQYWGQGTQVTVSS
0.529 | ID-A10U (VHH, V7R-2E9 with R45L; produced from E. coli) VHH: EVQLVESGGGLVQAGGSLRLSCESSISTFSSDAMGWFRQAPGKELEFLAAIGWSGAVTHYSDSVQGRFTISRDNAKNTVYLQMNSLKSEDTGRYYCAEDYDTDVWQYWGQGTQVTVSS
0.188 | ID-A19U (VHH, V7R-2E9 with G92A; produced from E. coli) VHH: EVQLVESGGGLVQAGGSLRLSCESSISTFSSDAMGWFRQAPGKEREFLAAIGWSGAVTHYSDSVQGRFTISRDNAKNTVYLQMNSLKSEDTARYYCAEDYDTDVWQYWGQGTQVTVSS
0.179 | ID-A12U (VHH, V7R-2E9 with L48V; produced from E. coli) VHH: EVQLVESGGGLVQAGGSLRLSCESSISTFSSDAMGWFRQAPGKEREFVAAIGWSGAVTHYSDSVQGRFTISRDNAKNTVYLQMNSLKSEDTGRYYCAEDYDTDVWQYWGQGTQVTVSS
0.175 | ID-A11U (VHH, V7R-2E9 with F47W; produced from E. coli) VHH: EVQLVESGGGLVQAGGSLRLSCESSISTFSSDAMGWFRQAPGKEREWLAAIGWSGAVTHYSDSVQGRFTISRDNAKNTVYLQMNSLKSEDTGRYYCAEDYDTDVWQYWGQGTQVTVSS
0.49 | ID-A5U (VHH, V7R-2E9 with I26G; produced from E. coli) VHH: EVQLVESGGGLVQAGGSLRLSCESSGSTFSSDAMGWFRQAPGKEREFLAAIGWSGAVTHYSDSVQGRFTISRDNAKNTVYLQMNSLKSEDTGRYYCAEDYDTDVWQYWGQGTQVTVSS
0.615 | ID-A13U (VHH, V7R-2E9 with A49S; produced from E. coli) VHH: EVQLVESGGGLVQAGGSLRLSCESSISTFSSDAMGWFRQAPGKEREFLSAIGWSGAVTHYSDSVQGRFTISRDNAKNTVYLQMNSLKSEDTGRYYCAEDYDTDVWQYWGQGTQVTVSS
0.168 | ID-A9U (VHH, V7R-2E9 with E44G; produced from E. coli) VHH: EVQLVESGGGLVQAGGSLRLSCESSISTFSSDAMGWFRQAPGKGREFLAAIGWSGAVTHYSDSVQGRFTISRDNAKNTVYLQMNSLKSEDTGRYYCAEDYDTDVWQYWGQGTQVTVSS
0.489 | ID-A4U (VHH, V7R-2E9 with S24A; produced from E. coli) VHH: EVQLVESGGGLVQAGGSLRLSCEASISTFSSDAMGWFRQAPGKEREFLAAIGWSGAVTHYSDSVQGRFTISRDNAKNTVYLQMNSLKSEDTGRYYCAEDYDTDVWQYWGQGTQVTVSS
0.139 | ID-A20U (VHH, V7R-2E9 with R93V; produced from E. coli) VHH: EVQLVESGGGLVQAGGSLRLSCESSISTFSSDAMGWFRQAPGKEREFLAAIGWSGAVTHYSDSVQGRFTISRDNAKNTVYLQMNSLKSEDTGVYYCAEDYDTDVWQYWGQGTQVTVSS
0.194 | ID-A6U (VHH, V7R-2E9 with F37V; produced from E. coli) VHH: EVQLVESGGGLVQAGGSLRLSCESSISTFSSDAMGWVRQAPGKEREFLAAIGWSGAVTHYSDSVQGRFTISRDNAKNTVYLQMNSLKSEDTGRYYCAEDYDTDVWQYWGQGTQVTVSS
0.436 | ID-A21U (VHH, V7R-2E9 with Q113L; produced from E. coli) VHH: EVQLVESGGGLVQAGGSLRLSCESSISTFSSDAMGWFRQAPGKEREFLAAIGWSGAVTHYSDSVQGRFTISRDNAKNTVYLQMNSLKSEDTGRYYCAEDYDTDVWQYWGQGTLVTVSS
0.446 | ID-A16U (VHH, V7R-2E9 with K87R; produced from E. coli) VHH: EVQLVESGGGLVQAGGSLRLSCESSISTFSSDAMGWFRQAPGKEREFLAAIGWSGAVTHYSDSVQGRFTISRDNAKNTVYLQMNSLRSEDTGRYYCAEDYDTDVWQYWGQGTQVTVSS
0.604 | ID-A8U (VHH, V7R-2E9 with 44 to 47 EREF to GLEW; produced from E. coli) VHH: EVQLVESGGGLVQAGGSLRLSCESSISTFSSDAMGWFRQAPGKGLEWLAAIGWSGAVTHYSDSVQGRFTISRDNAKNTVYLQMNSLKSEDTGRYYCAEDYDTDVWQYWGQGTQVTVSS
0.15 | ID-A14U (VHH, V7R-2E9 with Q65K; produced from E. coli) VHH: EVQLVESGGGLVQAGGSLRLSCESSISTFSSDAMGWFRQAPGKEREFLAAIGWSGAVTHYSDSVKGRFTISRDNAKNTVYLQMNSLKSEDTGRYYCAEDYDTDVWQYWGQGTQVTVSS
